Laboratory results published in patent publication US20210079109A1 (Regeneron, published 2021).

How the values were obtained:
human CD63 [1] = target: T1, human CD63 (human, UniProt P08962 2-238); test: ECL, LNCAP cells
T1 construct: stably transfected in NIH3T3/hCD63; The cell line is named under assay; also called hCD63
T1 sequence: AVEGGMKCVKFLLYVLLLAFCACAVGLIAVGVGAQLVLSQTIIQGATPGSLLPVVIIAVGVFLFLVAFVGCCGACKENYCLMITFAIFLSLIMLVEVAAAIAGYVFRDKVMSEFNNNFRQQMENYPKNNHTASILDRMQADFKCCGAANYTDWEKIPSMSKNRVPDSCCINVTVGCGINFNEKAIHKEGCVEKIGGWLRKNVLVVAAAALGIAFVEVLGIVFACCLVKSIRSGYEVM
Outline: (§1)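 Detached cells (~2.0×10⁴/well: NIH3T3/hCD63, LNCAP, U87MG, or parental NIH3T3 as negative control) were plated on carbon-electrode plates and blocked with 2% BSA. Anti-CD63 or isotype antibodies (1.7 pM–100 nM, in duplicate) were bound 1 h at RT, then washed. Signal read as electrochemiluminescence.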

human CD63 [2] = target: T1, human CD63; test: ECL, NIH3T3/hCD63 cells
Outline: as §1

human CD63 [3] = target: T1, human CD63; test: flow cytometry, HEK293 cells
Procedure: Relative cell surface binding of the anti-CD63 antibodies to human CD63 expressing cells was accessed via flow cytometry using CD63 positive HEK293 cells (ATCC, Cat #CRL-1573), which endogenously express human CD63, and CD63 negative HEK293/CD63 knock out cells. For the assay, cells were plated in PBS without calcium and magnesium (VWR, Cat #45000-446), containing 2% FBS (Saradigm Cat #1500-500) (Staining Buffer) in 96 well V-bottom plates (Axygen Scientific, Cat #P-96-450-V-C-S). Cells were then incubated with anti-CD63 antibodies or isotype control antibodies at concentrations ranging from 100 nM to 1.7 pM for 30 minutes on ice. Wells containing no antibody were used as controls. HEK293/CD63KO cells were stained with only the highest concentration (100 nM) of the antibodies. […] Cells were then washed and fixed using a 50% solution of Cytofix (BD Biosciences, Cat #554655) diluted in PBS. Samples were run on the Intellicyte Hypercyt flow cytometer and results were analyzed in ForeCyt software (Intellicyte) to calculate the mean fluorescent intensity (MFI). Measured values were analyzed using a four parameter logistic equation over a 12-point response curve using GraphPad Prism and the resulting EC₅₀ values are reported (Table 12). The signal to noise ratio (S/N) was determined by calculating the ratio of the anti-CD63 antibodies or the control antibodies MFI to the wells containing no antibodies (Table 12).

human CD63 [4] = target: T1, human CD63; test: ECL, U87MG cells
Outline: as §1

human CD63 [5] = target: T1, human CD63; test: cell-based or functional assay

B1: H2M12450N (antibody, V domains shown)
VH: QVQLQESGPKVVKPSETLSLTCTVSGGSISSYYWNWIRQSPGKGLEWIGYTKRGYTDYNPSLRSRVTISEDTSKNQFSLRISSVTAADTAVYYCAQMGWGSHAFDMWGQGTMVAVSS
VL: EIVLTQSPGTLSLSPGERATLSCRASQSVNSRYLAWYQQKPGQAPRLLIYGASSRATGIPDRCSGSGSGTDFTLTISRLEPEDFAVYYCQQYGSSPWTFGQGTKVEIK
notes: also called H2aM12450N; mAb12450
In the case of B1, the EC50 (human CD63 [1]) is reported as 1.4 nM, the “binding ratio at 3.7 nM vs NIH3T3” value (human CD63 [1]) is reported as 20 fold and the EC50 (human CD63 [2]) is reported as 0.97 nM. The “binding ratio at 3.7 nM vs NIH3T3” value (human CD63 [2]) was 281 fold, the EC50 (human CD63 [3]) was 0.5 nM and the “S/N (MFI over no-antibody wells)” value (human CD63 [3]) was 26.7. For the same binder, the EC50 (human CD63 [4]) was 1.4 nM, the “binding ratio at 3.7 nM vs NIH3T3” value (human CD63 [4]) was 272 fold and the “T47D (nM) IC50, indirect cytotoxicity with Fab anti-mFc-MMAF” value (human CD63 [5]) was 0.24 nM.

B2: H1M12451N (antibody, V domains shown)
VH: QVQLQESGPGLMKPSETLSLTCTVSGGSFSSYYWNWIRQSPGKGLEWIGYIRYSGDTNYKPSLKSRFTISIDTSKNLFSLRLKSVTAADTAVYYCARMGLGSDAFDIWGQGTMVTVSS
VL: EIVLTQSPGTLSLSPGERATLSCRASQSVNNNYLAWYQQKPGQAPRLLIYGVFNRATNIPDRFSGSGSGTDFTLTISRLEPEDFAVYYCQQYGSSPWTFGQGTKVEIK
With B2 the EC50 (human CD63 [1]) was 0.35 nM, the “binding ratio at 3.7 nM vs NIH3T3” value (human CD63 [1]) was 18 fold and the EC50 (human CD63 [2]) was 0.29 nM. For the same binder, the “binding ratio at 3.7 nM vs NIH3T3” value (human CD63 [2]) was 256 fold, the EC50 (human CD63 [3]) was 1.8 nM and the “S/N (MFI over no-antibody wells)” value (human CD63 [3]) was 31.6. For the same binder, the EC50 (human CD63 [4]) was 0.79 nM and the “binding ratio at 3.7 nM vs NIH3T3” value (human CD63 [4]) was 171 fold.

B3: H2M12395N (antibody, V domains shown)
VH: QVQLQESGPRLVKPSETLSLTCIVSGGSISNFYWNWIRQSPGKGLEWIGYFFYTGTIDYNPSLKSRVTISLDTSKNQFSLNLRLLTAADAAVYYCARMGLGANAFDIWGHGTMVTVSS
VL: EIVLTQSPGTLSLSPGERATLSCRASQHVSSNYLAWYQQKPGQAPRLLIYGGSSRATGIPDRFSGSGSGTDFTLTISRLEPADFAVFYCQQYGNSPWTFGQGTKVEMK
notes: also called H2aM12395N
For B3, the EC50 (human CD63 [1]) was 1.7 nM, the “binding ratio at 3.7 nM vs NIH3T3” value (human CD63 [1]) was 7 fold and the EC50 (human CD63 [2]) was 0.57 nM. For the same binder, the “binding ratio at 3.7 nM vs NIH3T3” value (human CD63 [2]) was 91 fold, the EC50 (human CD63 [3]) was 1.9 nM and the “S/N (MFI over no-antibody wells)” value (human CD63 [3]) was 21. The EC50 (human CD63 [4]) was 0.95 nM and the “binding ratio at 3.7 nM vs NIH3T3” value (human CD63 [4]) was 52 fold.
